Data as given in publication PMC9646764 (2022).

B1: TcdB4.2_(1286-1805) (domain or fragment)
chain: TNIRISLDSNTRSFIVPVITTEYIREKLSYSFYGSGGTYALSLSQYNMNINIELNENDTWVIDVDNVVRDVTIESDKIKKGDLIENILSKLSIEDNKIILDNHEINFSGTLNGGNGFVSLTFSILEGINAVIEVDLLSKSYKVLISGELKTLMANSNSVQQKIDYIGLNSELQKNIPYSFMDDEGKENGFINCFTKEGLFVSELSDVVLIIKVYMDNSKPPFGYYSNDLKDVKVITKDDVIIITGYYLKDDIKISLSFTIQDKNTIKLNGVYLDENGVAEILKFMNKKGSTNTSDSLMSFLESMNIKSIFIKSLKSNAKLILDTNFIISGTTFIGQFEFICDKDNNIQPYFIKFNTLETKYTLYVGNRQNMIVEPNYNLDDSGDISSTVINFSQKYLYGIDSCVNKVVISPGIYTDEINITPVHEANNTYPEVIVLDTNYISEKINININDLSIRYVWSNDGSDFILMSTDEENKVSQVKIRFTNVFKGNTISDKISFNFSDKQDISINKIISTFTPSYY
B2: Chicken TFPI-Fc (Fc fusion)
chain: TDDSDGEEEDVLGVPLPPLKLGHSDCALKADEGPCKAIHVRFYFNIQSRECEIFEYGGCHGNANNFLTLEECQNKCVVTELPLEVMLAKNEREKPNFCYQEKDPGICRGFFSRYFYNKETKICEIFKYGGCLGNQNNFKSLEECQTTCQGNPNLLSVAPDEEHPNHMNSSSPEEERNQFPGIVE
B3: mTFPI-Fc (Fc-tagged mouse TFPI) (Fc fusion)
chain: LSEEADDTDSELGSMKPLHTFCAMKADDGPCKAMIRSYFFNMYTHQCEEFIYGGCEGNENRFDTLEECKKTCIPGYEKTAVKAASGAERPDFCFLEEDPGLCRGYMKRYLYNNQTKQCERFVYGGCLGNRNNFETLDECKKICENPVHSPSPVNEVQMSDYVTDGNTVTDRSTVNNIVVPQSPKVPRRR

Legend:
Experiment in all cases: BLI
Chicken TFPI-Fc [1] = target: B2
Chicken TFPI-Fc [2] = target: B2
[3] = target: B3
[4] = target: TFPI-Fc (human IgG-Fc-tagged TFPI without the GPI anchor) (human, UniProt P10646 29-209)
TcdB10.1_(1285-1804) = TcdB10.1_(1285-1804) ( | Clostridioides difficile)

Sequence of TFPI-Fc (human IgG-Fc-tagged TFPI without the GPI anchor) (P10646 29-209): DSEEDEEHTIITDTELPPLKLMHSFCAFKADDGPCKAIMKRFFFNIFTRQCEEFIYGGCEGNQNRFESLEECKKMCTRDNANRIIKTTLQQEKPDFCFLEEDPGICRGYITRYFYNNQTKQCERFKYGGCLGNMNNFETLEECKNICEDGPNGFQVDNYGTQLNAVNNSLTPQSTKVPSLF

Binder | Kd (Chicken TFPI-Fc [1]) [nM] | koff (Chicken TFPI-Fc [2]) [s⁻¹] | koff [3] [s⁻¹] | koff [4] [s⁻¹] | Kd (TcdB10.1_(1285-1804)) [nM] | koff (TcdB10.1_(1285-1804)) [s⁻¹]
B1 | 336 | 0.00885 | 0.00344 | 0.00708 |  | 
B2 |  |  |  |  | 70.5 | 0.006
B3 |  |  |  |  | 465 | 0.00637
